Laboratory results as given in the RNAGym collection of RNA variant scans (doi:10.1073/pnas.2313332121).

B1: TPR t1 (parent)
chain: GACCAAUCUGCCCUCAGAGCUCGAGAACAUCUUCGGAUGCAGAGGAGGCAGGCUUCGGUGGCGCGAUAGCGCCAACGUCCUCAACCUCCAAUGCAUCCCACCACAUGAUGAUGCCUGAAGAGCCUUGGUUUUUUG

Variants of: B1
Experiment: polymerase ribozyme fitness, log enrichment relative to wild type (log ratio); higher = more active; in vitro selection for triplet polymerase activity
Method in brief: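 For each subunit of a heterodimeric triplet polymerase ribozyme, a mutant library was built by PCR and transcribed, then taken through a single in vitro selection round in triplicate. Selection involved annealing to a biotinylated primer, the partner subunit and triplets, incubation frozen at −7 °C, gel excision of extended constructs, capture on streptavidin beads and RT-PCR. Genotypes were retained after Illumina sequencing of inputs and outputs only with ≥10 input reads and ≥1 read in each output. Fitness is defined as the logarithm of a genotype's enrichment relative to wild-type enrichment, using inverse-variance-weighted averages across replicates, with the logarithm taken to base 2.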

Variant	polymerase ribozyme fitness (log ratio)
GACCAAUUUGCCCUCAGAGCUCGAGAACAUCUUCGGAUGCAGAGGAGGCAGGCUUCGGUGGCGCGAUAGCGCCAUCGUCCUCAACCUCUUAUGCAUCCUACCACAUGAUGAUGCCUGAAAAGCCUUGGUGAUUUG [C8U A75U C89U A90U C99U G120A U130G U131A]	-4.88
GACCAAUUUGCCAUCAGAGAUCGAGAACAUCUUCGGAUGCAGAGGAGGCAGGCUUCGGUGGCGCGAUAGCGCCAACGUCCUCAACCUCCAAUGCAUCCCACCACAUGAUGAUACCUGAAGAGGCUUGGUUUUUUG [C8U C13A C20A G113A C123G]	-1.33
GACCAAUUUGGCCUCAGAGCUCGAGAACAUCUUCGGAUGCAGAGGAGGCAGGCUUCGGUGGCGCGAUAGUGCCAACGUCCUCAACCUCCAAUACAUCCCACCACAUGAUGAUGCCUGAAGAGCCUUGGUUUUUUG [C8U C11G C70U G93A]	0.0777
GACCAAUUUGCUCUCAGAGCUCGAGAACAUCUUCGGAUGCAGAGGAGGCAGGCUUCCGUGGCGCGAUAGCGCCAACGUCCUCAACCUCCUAUGCAUCCCACCACAUGAUGAUGCCUGAAGAGCCUUGGUUUUUUG [C8U C12U G57C A90U]	-0.755
GACCAAUUUGGCCUCAGAGCUCGAGAACAUCUUCGGAUGCAGAGGAGCCAGGCUUUGGUGGCGUGAUAGCGCCAACGUCCUCAACCUCUAAUGCAUCCCACCACAUGAUGAUGCCUUAAGAGCCUUGGUUUUUUG [C8U C11G G48C C56U C64U C89U G117U]	-5.48
GACCAAUUUGCCAUCAGAGAUCGAGAACAUCUUCGGAUGCAGAGGAGGCAGGCUUCGGAGGCGCGAUAGCGCCAACGUCCUCAACCUCCAAUGCAUCCCACCACAUGAUGAUACCUGAAGAGGCUUGGUUUUUUG [C8U C13A C20A U59A G113A C123G]	-1.9
GACCAAUUUGCCCUCAGAGCUCGAGAACAUCUUCGGAUGCAGAGGUGGCAGGCUUCGGUGACGCGAUAGCGCCAACGUCCUCAACCUCCAAUGCAUCCCAACACAUGAUGAUUCCUGAAGAGCCUUGGUUUUUUG [C8U A46U G61A C101A G113U]	-2.36
GACCAAUUUGCCCUCAGAGCUCGAGAACAUCUUCGGAUGCAGAGGAGGCUGGCUUCGGUGGCGCGAUAUCGCCAACGUCCUCAACCUCCAAUGCAUCCCACCACAUGAUGAUGCCUGAAGAGCCUUGGUUUUUUG [C8U A50U G69U]	-0.24
GACCAAUUUGCACUCAGAGCUCGAGAACAUCUUCGGAUGAAGAGGAGGCAGGCUUCGGUGUCGCGGUAGCGCCAACGUCCUCAACCUCCAAUGCAUCCCACCACAUGAUGAUGCCUGAAGAGCCUUGGUUUUUUG [C8U C12A C40A G61U A66G]	-1.69
GACCAAUUUGCCCUCAGAGCUCGAGAACAUCUUCGGAUGCAGAGGAGGCUGGCUUCGGUGGCGCGAUAGCGCCAACGUCCUCAACCUCCAAUGCAUCCCACCACAUGAUGAUGCCUCAAGAGCCUUGGUUUUUUG [C8U A50U G117C]	-3.99
GACCAAUUUGCCCUCAGAGCUCGAGAACAUCUUCGGAUGCAGAGGAGGCAGGCUUCGGUGGCGCGAUAGCGCCAACGUCCUCAACCUCCAAUGCAUCCCACCACAUGAUGGUGCCUGAAGAGCCUUGGUUUUUUG [C8U A111G]	1.25
GACCAAUUUGUCCUCAGAGCUCGAGAACAUCUUCGGAGGCAGGGGAGGCAGGCUUCGGUGGCGCGAUAGCGCCAACGUCCUCAACCUCCAAUGCAUCCCACCAUAUGAUGAUGCCUGAAGAGCCUUGGUUUUUUG [C8U C11U U38G A43G C104U]	-2.94
GACCAAUUUGCACUCAGAGCUCGAGAACAUCUUCGGAUGCAGAGAAGGCAGGCUUAGGUGGCGCGAUAGCGCCAACGUCCUCAACCUCCAAUGCAUCCCACCACAUGAUGAUGCCUGAAGAGCCUUGGUUUUUUG [C8U C12A G45A C56A]	0.0537
GACCAAUUUGCACUCAGAGCUCGAGAACAUCUUCGGAUGCAGAGGAGGCAGGCUUCGGUGGCGCGAUAGCGUCAACGUCCUCAACCUCCAAUGCAUCCCACCACAUGAUGAUGCCUCAAGAGCCUUGGUUUUUUG [C8U C12A C72U G117C]	-1.86
GACCAAUUUGUCCUCAGAGCUCGAGAACAUCUUCGGAUGCGGAGCAGUCAGGCUUCGGUGGCGCGAUAGCGCUAACGUCCUCAACCUCCAAUGCAUCCCACCACAUGAUGAUGCCUGAAGAGCAUUGAUUUUUUG [C8U C11U A41G G45C G48U C73U C124A G128A]	-5.7
GACCAAUUUGACCUCAGAGCUCGAGAACAUCUUCGGAUGCAGAGGAGGCAGGCUUCGGUGGCGCGAUAGCGCCAACGUCCUCAACCUCCAAUGCAUCCCACCACAUGAUGAUGCCUGAAGAGCUUUGGUUUUUUG [C8U C11A C124U]	1.17
GACCAAUUUGCCCUCAGAGCUCGAGAACAUCUUCGGAUGCUGAGGAGGCAGGCUUCGGUGGCGCGAUAGCGCAAACGUCCUCAACCUCCAAUGCAUCCCACCACAUGAUGAUGCCUGAAGAGCCUUGGUUUUUUG [C8U A41U C73A]	-0.9
GACCAAUUUGCCCUCAGAGCUCGAGAACAUCUUCGGAUGCAGAGGAGGCAGGCUUCGGUGGCGCGAUAGCGCCAACGUCCUCAACCUCCAAUGCAUCCCCCCACAUGAUGAUGCCUGAAGAGCCUUGGUUUUUUG [C8U A100C]	-0.899
GACCAAUUUGCCCUCAGAGCUCGAGAACAUCUUCGGAUGCAGAGGAGGCAGGCUUCGGUGGCGCGAUAGCGCCAACGUCCUCAACCUCCAAUGCAUCCCUCCACAUGAUGAUGCCUGAAGAGCCUUGGUUUUUUG [C8U A100U]	-0.0529
GACCAAUUUGCCCUCAGAGCUCGAGAACAUCUUCGGAUGCAGAGGAGGCAGGCUUCGGUGGCGCGAUAGCGCCAACGUCCUCAACCUCCAUUGCAUCCCACCACAUGAUGAUGCCUGAAGAGCCUUGGUAUUUUG [C8U A91U U130A]	-1.26
GACCAAUUUGCGCUCAGAGCUCGAGAACAUCUUCGGAUGCAUAGGAGGCAGGCUUCGGUGGCGCGAUAGCGCCUACGUCCUCAACCUACAAUGCAUCCCACCACAUGAUGAUGCCUGAAGAGCCUUGGUUUUUUG [C8U C12G G42U A74U C88A]	-1.72

Variant	polymerase ribozyme fitness (log ratio)
GACCAAUUUGCCCUCAGAGCUCGAGAACAUCUUCGGAUGCAGAGGAGGCAGGCUUCGGUGGCGCGAUGGCGCCAACGUCCUCAACCUCCAAUGCAUCCCACCACAUGAUGCUGCCUGAAGAGCCUUGGUUUUUUG [C8U A68G A111C]	-3.15
GACCAAUUUGCCCUCAGAGCUCGAGAACAUCUUCGGAUGCAGAGGAGGCAGGCUUCGGUGGCGCGAUAGCGCCAACGUCCUCAACCUCCAAUGCAUCCCACCACCUGAUGAUGCCUGAAGAGCCUUGGUUUUUUG [C8U A105C]	-2.01
GACCAAUUUGCCCUCAGAGCUCGAGAACAUCUUCGGAUGCAGAGGGGGCAGGCUUGGGUGGCGCGAUAGCGCCAACGUCCUCAACCUCCAAUGCAUCCCACCACAUGAUGAUGCCUGAAGAGCCUUGGUUUUUUG [C8U A46G C56G]	-0.511
GACCAAUUUGUCCUCAGAGCUCGAGAACAUCUUCGGAUGCAGAGGAGGCAGGCUUCGGUGGCGCGAUAGCGCCAACGUCCUCAACCUCCAAUGCAUCCCACCACAUGAUGAUGCCUGAAGAGCCUUGGUUUUUUG [C8U C11U]	-0.675
GACCAAUUUGCCGUCAGAGCUCGAGAACUUCUUCGGAUGCAGAGGAGGCAGGCUUCGGUGGCGCGAUAGCGCCAACGUCCUCAACCUCCAAUGCAUCCCACCACAUGAUGAUGCCUGAAGAACCUUGGUUUUUUG [C8U C13G A29U G122A]	-2.49
GACCAAUUUGCCGUCAGAGCUCGAGAACAUCUUCGGAUGCAGAGGAGGCAGGGUUCGGUGGCGCGAUAGCGGCAACGUCCUCAACCACCAAUGCAUCCCACCACAUGAUGAUGCCUGAAGAGCCUUGGUUUUCUG [C8U C13G C53G C72G U87A U133C]	-2.29
GACCAAUUUGCCCUCAGAGCUCGAGAACAUCUUCGGAUGCAGUGGAGGCAGGCUUCGAUGGCGCGAUAGCGCCAACGUUCUCAACCUCCAAUGCAUCCCACCACAUGAUGAUCCCUGGAGAGCCUUGGUUUUUUG [C8U A43U G58A C79U G113C A118G]	-3.06
GACCAAUUUGCCCUCAGAGCUCGAGAACAUCUUCGGAUGCAGAGGCGGCAGGCUUCGGUGGCGCGAUAGCGCCAACGUCCUCAACCUCCAAUGCAUCCCACCACAUGAUGAUGCCUGAACAGCCUUGGUUUUUUG [C8U A46C G120C]	1.49
GACCAAUUUGCCGUCAGAGCUCGAGAACAUCUUCGGAUGCAGAGGAGGCAGGCUUCGGUGGCGCGAUAGCGCCAACGUCCUCAACCUCCAAUGCAUCCCACAACAUGAUGAUGCCUGAAGAAGCUUGGUUUUUUG [C8U C13G C102A G122A C123G]	-0.13
GACCAAUUUGCUCUCAGAGCUCGAGAACAUCUUCGGAUGCAGAGGAGGCAGGCUUCGGUGGCGCGAUAGCGCCAACGUCCUCAACCUGCAAUGCAUCCCACCACAUGAUGAUGCCUGAAGAGCCUUGGUUUUUUG [C8U C12U C88G]	-0.238
GACCAAUUUGCCCUCAGAGCUCGAGAACAUCUUCGGAUGCAGAGGAGGCAGGCUUCGGUGGCGCGAUAGCGCCAACGUCCUCAACCUCCAAUGCAUCCCACCACAUGAUGAUGCCUGAAGGGCCUUGGUUUUUUG [C8U A121G]	1.42
GACCAAUUUGUCCUCAGAACUCGAGAACAUCUUCGGAUGCAGAGGAGGCAGGCUUCGGUGGCGCGAUAGCGCACACGUCCUCAACAUCCAAUGCAUCCCACCACAUGAUGAUGCCUGAAGAGCCUUGGUUUUUUG [C8U C11U G19A C73A A74C C86A]	-3.7
GACCAAUUUGCUCUCAGAGCUCGAGAACAUCUUCGGAUGCAGAGGAGGCAGGCUUCGGUGGCGCGAUAGCGCCAACGUCCUCAACCUCCAAUGCAUCCCACCACAUGAUGAUGCCUGAAGAGCCUUGGUUUUUUG [C8U C12U]	0.659
GACCAAUUUGCCCUCAGAGCUCGAGAACAUCUUCGGAUGCUGAGGAGGCAGGCUUCGGUGGCGCGAUAGCGCCAACGUCCUCAACCUCCAAUGCAUUCCACCACAUGAUGAUGCCUGAAGAGCCUUGGUUUUUUG [C8U A41U C97U]	-0.942
GACCAAUUUGCCCUCAGAGCUCGAGAACAUCUUCGGAUGCAGAGGAGGCAGGCUUCGGUGGCGCGAUAGCGCCAACGUCCUCUAUCUCCAAUGCAUCCCACCACAUGAUGAUGCCUGAAGAGGGUUGGUUUUUUG [C8U A83U C85U C123G C124G]	2.01
GACCAAUUUGGCUUCAGAGAUCGAGAACAUCUUCGGAUGCAGAGGAGGCAGGCUUCGGUGGCGCGAUACCGCCAACGUCCUACACCUCCAAUGCAUCUCACCACAUGAUGAGGCCUGAAGAGCCUUGGUUUUUUG [C8U C11G C13U C20A G69C C82A A83C C98U U112G]	-4.19
GACCAAUUUGCCCUCAGAGCUCGAGAACAUCUUCGGAUGCAGAGGGGGCAGGCCUAGGUGGCGCGAUAGCGCCAACGUCCUCAACCUCCAAUGCAUCCCACCACAUGAUGAUGCCUGAAGAGCCUUGGUUUUUUG [C8U A46G U54C C56A]	-0.306
GACCAAUUUGCCCUCAGAGCUCGAGAACAUCUUCGGAUGCAGAGGAGGCAGGCUUCGGUGGCGCGAUAGCGCCAACGUCCUCAACCUCCAAUGCAUCCCACCACAUGAUGAUGCCUGGAGAGCCUUGGUUUUUUG [C8U A118G]	-0.114
GACCAAUUUGUCCUCAGAGCUCGAGAACAUCUUCGGAUGCAGAGGAGGCAGGCUUCGGUGGCGCGAUAGCGCCAACGUCCUCAACCUCCAAUUCAUCCCACCACAUGAUGAUGCCUGAAGAGCCUUGGUUUUUUG [C8U C11U G93U]	-1.31
GACCAAUUUGCCGUCAGAGCUCGAGCACAUCUUCGGAUGCAGAGGAGGCAGGCUUCGGUGGCGCGAUAGCGCCCACGUCCUCAACCUCCAAUGCAUCCCACCACAUGAUGAUGCCUGAAGAGCCUUGGUUUUUUG [C8U C13G A26C A74C]	-6.04
GACCAAUUUGCGCUCACAGCUCGAGAACAUCUUCGGAUGCAGAGGAGGCAGGCUUCGGUGGCGCGAUAGCGCCAACGUCUUCAACCUCCUAUGCAUCCCACCACAUGAUGAUGCCUGAAGAGCCUUGGUUUUUUG [C8U C12G G17C C80U A90U]	-2.49
